Holding throughout (test): SPOT array
Assay [1] deals with T1, Boi1 SH3 (BOI1_YEAST), P38041.
T1 chain: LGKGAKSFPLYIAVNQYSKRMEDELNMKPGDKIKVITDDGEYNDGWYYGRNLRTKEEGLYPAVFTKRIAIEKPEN

For assay [2], the target named is T2, Boi2 SH3 (BOI2_YEAST), P39969.
T2 chain: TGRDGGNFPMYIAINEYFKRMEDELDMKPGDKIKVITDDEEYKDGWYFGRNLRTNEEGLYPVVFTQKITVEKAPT

The target in assay [3] is T3, Rvs167 SH3 (RV167_YEAST), P39743.
T3 chain: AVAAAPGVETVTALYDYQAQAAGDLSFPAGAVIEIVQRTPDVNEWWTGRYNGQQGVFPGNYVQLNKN

In assay [4] the target is T4, Yfr024 SH3 (LSB3_YEAST), P43603.
T4 chain: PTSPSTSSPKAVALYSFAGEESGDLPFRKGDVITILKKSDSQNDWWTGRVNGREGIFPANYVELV

Assay [5] deals with T5, Yhr016c SH3 (YSC84_YEAST), P32793.
T5 chain: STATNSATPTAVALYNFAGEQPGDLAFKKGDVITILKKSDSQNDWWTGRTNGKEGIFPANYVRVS

In the case of PKEPRLPKRKVAVM [YPL212C 67-80], the normalised SPOT signal, Boehringer light units (BLU); mean over the file's lines of this peptide turned out to be 227 in assay [1]; 28.3 in assay [2]; 5510 in assay [3]; 38000 in assay [4]; 39200 in assay [5].

Regarding PMSPGPPSKKDSRH [YJL005W 495-508], the normalised SPOT signal, Boehringer light units (BLU); mean over the file's lines of this peptide in assay [1] came to 127; in assay [2] it was 147; in assay [3], 138; in assay [4], 996; in assay [5], 178.

As for PKDPSSPQRDEILT [YBR271W 27-40], the normalised SPOT signal, Boehringer light units (BLU); mean over the file's lines of this peptide stood at 138 in assay [1]; 156 in assay [2]; 53.2 in assay [3]; 6.2 in assay [4]; 0 in assay [5].

For the molecule PIMPTLPPRPYITI [YGL060W 537-550], the normalised SPOT signal, Boehringer light units (BLU); mean over the file's lines of this peptide is 31.6 in assay [1]; 87.6 in assay [2]; 5510 in assay [3]; 26100 in assay [4]; 24900 in assay [5].

Regarding NYQPKPPIREGNGP [YLR213C 97-110], the normalised SPOT signal, Boehringer light units (BLU); mean over the file's lines of this peptide in assay [1] is 43.5; in assay [2], 53.8; in assay [3], 79.4; in assay [4], 114; in assay [5] it was 156.

Consider PLPPIPPTKSKTSP [YHL007C 535-548], for which the normalised SPOT signal, Boehringer light units (BLU); mean over the file's lines of this peptide in assay [1] amounted to 80.6; in assay [2], 21; in assay [3], 30.2; in assay [4], 504; in assay [5], 140.

For PLQPRPPVKPLSKQ [YGR084C 87-100], the normalised SPOT signal, Boehringer light units (BLU); mean over the file's lines of this peptide in assay [1] is 91.7; in assay [2] it was 34.5; in assay [3], 57.3; in assay [4], 861; in assay [5] it was 128.

On to PIVPREPLRNEPTD [YPL255W 118-131], for which the normalised SPOT signal, Boehringer light units (BLU); mean over the file's lines of this peptide in assay [1] was determined as 628; in assay [2], 33300; in assay [3], 34500; in assay [4] it was 7410; in assay [5], 5170.

Take PFLPVLPQKPGGVR [YDR178W 35-48]: the normalised SPOT signal, Boehringer light units (BLU); mean over the file's lines of this peptide in assay [1] turned out to be 49.9; in assay [2] it was 35.7; in assay [3], 20; in assay [4], 12700; in assay [5], 338.

Consider PASPTPPYRSRETE [YLR457C 288-301], for which the normalised SPOT signal, Boehringer light units (BLU); mean over the file's lines of this peptide came to 51.2 in assay [1]; 31 in assay [2]; 13.1 in assay [3]; 933 in assay [4]; 729 in assay [5].

PIQPQEPFRHNTTI [YNL085W 152-165]: the normalised SPOT signal, Boehringer light units (BLU); mean over the file's lines of this peptide was 104 in assay [1]; 7.9 in assay [2]; 20.4 in assay [3]; 60.6 in assay [4]; 52.8 in assay [5].

As for PLIPDNPGRLLSSK [YEL023C 311-324], the normalised SPOT signal, Boehringer light units (BLU); mean over the file's lines of this peptide in assay [1] amounted to 94.5; in assay [2], 48.5; in assay [3], 42.7; in assay [4], 200; in assay [5] it was 205.

Turning to PAFPEYPMRRDTLY [YMR058W 448-461], the normalised SPOT signal, Boehringer light units (BLU); mean over the file's lines of this peptide is 3190 in assay [1]; 82.5 in assay [2]; 57.6 in assay [3]; 5040 in assay [4]; 1930 in assay [5].

For the molecule PFIPKFPSRESVES [YBR036C 302-315], the normalised SPOT signal, Boehringer light units (BLU); mean over the file's lines of this peptide in assay [1] was 39.7; in assay [2], 70.4; in assay [3] it was 506; in assay [4], 2600; in assay [5], 1410.

As to PFLPKIPQKPGGVS [YLR164W 27-40], the normalised SPOT signal, Boehringer light units (BLU); mean over the file's lines of this peptide in assay [1] is 80.5; in assay [2] it was 45.9; in assay [3] it was 50.1; in assay [4] it was 2200; in assay [5] it was 173.
